Tests used:
[1] = biological target: p-Erk1 (phosphorylated Erk1, member of p-Erk1/2) (human (endogenous in human cell lines), UniProt P27361 2-379, phosphorylated (p-Erk1/2, induced by constitutively active MEK1); sites not given); assay: co-IP from HEK293 cells (FIG. 45D)
[2] = biological target: T1, Erk2 (endogenous, member of Erk1/2) (human (endogenous in human cell lines), UniProt P28482 2-360); assay: co-IP from HEK293 cells (FIG. 45D)
T1 construct: one entry is written for each member; also called total Erk1/2

[3] = biological target: p-Erk2 (phosphorylated Erk2, member of p-Erk1/2) (human (endogenous in human cell lines), UniProt P28482 2-360, phosphorylated (p-Erk1/2, induced by constitutively active MEK1); sites not given); assay: co-IP from HEK293 cells (FIG. 45D)
[4] = biological target: T2, Erk1 (endogenous, member of Erk1/2) (human (endogenous in human cell lines), UniProt P27361 2-379); assay: co-IP from HEK293 cells (FIG. 45D)
T2 construct: one entry is written for each member; also called total Erk1/2

[5] = biological target: T1, Erk2 (endogenous, member of Erk1/2); assay: reciprocal co-IP from HMLE lysates, western blot (FIG. 45C)
[6] = biological target: T2, Erk1 (endogenous, member of Erk1/2); assay: as above

Measured: binding result

T1 sequence (P28482 2-360 limits assumed): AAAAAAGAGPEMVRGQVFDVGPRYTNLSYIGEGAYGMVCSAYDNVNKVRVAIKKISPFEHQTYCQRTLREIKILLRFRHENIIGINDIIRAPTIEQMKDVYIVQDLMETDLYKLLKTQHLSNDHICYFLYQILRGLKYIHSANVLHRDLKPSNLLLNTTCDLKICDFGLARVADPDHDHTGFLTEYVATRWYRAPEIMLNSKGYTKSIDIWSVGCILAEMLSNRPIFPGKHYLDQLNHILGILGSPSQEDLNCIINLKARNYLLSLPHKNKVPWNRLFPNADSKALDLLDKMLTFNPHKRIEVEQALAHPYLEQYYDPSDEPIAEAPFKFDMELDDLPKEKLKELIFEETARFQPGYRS
T2 sequence (P27361 2-379 limits assumed): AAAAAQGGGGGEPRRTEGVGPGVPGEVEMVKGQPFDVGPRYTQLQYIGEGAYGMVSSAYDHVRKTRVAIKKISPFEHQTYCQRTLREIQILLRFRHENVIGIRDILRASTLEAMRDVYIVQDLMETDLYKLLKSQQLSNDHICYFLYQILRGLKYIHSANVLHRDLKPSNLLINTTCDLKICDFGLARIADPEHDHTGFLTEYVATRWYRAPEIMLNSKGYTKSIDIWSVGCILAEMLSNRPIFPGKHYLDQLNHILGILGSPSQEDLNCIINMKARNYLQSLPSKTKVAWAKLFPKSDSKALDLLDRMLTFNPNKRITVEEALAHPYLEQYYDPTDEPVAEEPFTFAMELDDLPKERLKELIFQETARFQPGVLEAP
p-Erk2 (phosphorylated Erk2, member of p-Erk1/2), sequence (P28482 2-360 limits assumed): as the sequence (P28482 2-360 limits assumed) above
p-Erk1 (phosphorylated Erk1, member of p-Erk1/2), sequence (P27361 2-379 limits assumed): as the sequence (P27361 2-379 limits assumed) above

B1: Flag-Rab2A (enzyme, UniProt P61019 1-212, looked up, not shown: small tags and cut ends)
chain: MAYAYLFKYIIIGDTGVGKSCLLLQFTDKRFQPVHDLTIGVEFGARMITIDGKQIKLQIWDTAGQESFRSITRSYYRGAAGALLVYDITRRDTFNHLTTWLEDARQHSNSNMVIMLIGNKSDLESRREVKKEEGEAFAREHGLIFMETSAKTASNVEEAFINTAKEIYEKIQEGVFDINNEANGIKIGPQHAATNATHAGNQGGQQAGGGCC
notes: also called wild-type Rab2A
binds: [1] | [2] | [3] | [4]

B2: endogenous Rab2A (enzyme, human (endogenous in human HMLE cells), UniProt P61019 2-212, looked up)
chain: AYAYLFKYIIIGDTGVGKSCLLLQFTDKRFQPVHDLTIGVEFGARMITIDGKQIKLQIWDTAGQESFRSITRSYYRGAAGALLVYDITRRDTFNHLTTWLEDARQHSNSNMVIMLIGNKSDLESRREVKKEEGEAFAREHGLIFMETSAKTASNVEEAFINTAKEIYEKIQEGVFDINNEANGIKIGPQHAATNATHAGNQGGQQAGGGCC
binds: [5] | [6]
